In article PMC8677749:

Molecular target: HBV core protein (Cp) dimer (Hepatitis B virus (strain NC_003977.1, subtype ayw?)) (UniProt P03146)
Experiment: NCP assembly, SEC-MALLS
Details: 20 mM HEPES pH 7.5, 250 mM NaCl, 5 mM DTT, up to 0.15 M GuHCl, ~20 C; 1 nM RNA, Cp dimer titrated to 1.2 uM

Chain of HBV core protein (Cp) dimer (Hepatitis B virus (strain NC_003977.1, subtype ayw?)) (P03146 whole entry): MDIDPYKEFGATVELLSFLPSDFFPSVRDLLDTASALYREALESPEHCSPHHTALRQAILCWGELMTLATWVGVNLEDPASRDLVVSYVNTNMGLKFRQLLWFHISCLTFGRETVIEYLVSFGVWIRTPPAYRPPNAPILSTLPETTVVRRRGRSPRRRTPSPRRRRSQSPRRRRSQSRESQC

HBV JQ707375.1 gRNA (pgRNA) wild type was tested, and the binding signal (% RNA yield after RNase A) was 81.
